The values that follow are results of earlier work, collected in patent publication US20060122098A1, “System for infusing insulin to a subject to imporve impaired total body tissue glucose processing” (priority 2004, published 2006).

For the series the following is noted: in vivo.

Regarding insulin, the half-life is 5 min.

For orientation: half-life means the time needed for the level to fall by half in the phase considered.
